The values that follow come from article PMC3967050 (Genes & Development, 2014).

Square brackets hold non-standard residues; d marks the D form. Ends that are not written are not given here. Arg(Me2a) = CN(C)C(=N)NCCC[C@H](N)C(=O)O; Lys(Me3) = C[N+](C)(C)CCCC[C@H](N)C(=O)O; Arg(Me2s) = CN=C(NC)NCCC[C@H](N)C(=O)O; Arg(Me) = CNC(=N)NCCC[C@H](N)C(=O)O

One data set concerns the target SPIN1_50–262 (Homo sapiens, UniProt Q9Y657). Put plainly: ITC of SPIN1_50–262 with synthetic peptides. Type of data set: binding. Conditions: relative to H3 K4me3–R8me2a.
Data set [1] concerns the target bulky arginine mutations of residues W72, Y98, and F251. Nature of the data set: ITC. Background: Isothermal titration calorimetry measures the heat released or taken up as one component is titrated into another.
The target in data set [2] is Human Spindlin1 50–262 (SPIN1_(50–262)) (human) (UniProt Q9Y657). Nature of the data set: ITC.
Data set [3] addresses T1, Human Spindlin1 50–262 (SPIN1_(50–262)) (human, UniProt Q9Y657 50-262). Nature of the data set: thermo-fluor stability assay.
Data set [4] has as its target T1, Human Spindlin1 50–262 (SPIN1_(50–262)). Put plainly: ITC.
A further data set has as its target SPIN1_(50–262) E142A (human, UniProt Q9Y657 50-262, E142A). Put plainly: ITC.
The next data set concerns the target SPIN1_(50–262) D184A (human, UniProt Q9Y657 50-262, D184A). Nature of the data set: ITC.

T1 sequence (Q9Y657 50-262): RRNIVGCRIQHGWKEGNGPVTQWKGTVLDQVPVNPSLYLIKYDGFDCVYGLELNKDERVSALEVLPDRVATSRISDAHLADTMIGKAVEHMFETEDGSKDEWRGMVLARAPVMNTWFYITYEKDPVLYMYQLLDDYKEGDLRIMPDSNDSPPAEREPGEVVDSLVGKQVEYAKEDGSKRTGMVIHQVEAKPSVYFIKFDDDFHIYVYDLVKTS
SPIN1_(50–262) E142A, sequence (Q9Y657 50-262 E142A): as the sequence (Q9Y657 50-262) above, with E93A counted along it
SPIN1_(50–262) D184A, sequence (Q9Y657 50-262 D184A): as the sequence (Q9Y657 50-262) above, with D135A counted along it
Human Spindlin1 50–262 (SPIN1_(50–262)) (human), sequence (Q9Y657 50-262): as the sequence (Q9Y657 50-262) above
SPIN1_50–262, sequence (Q9Y657 50-262): as above

Consider `C[C@H](N)C(=O)N[C@@H](CCCNC(=N)N)C(=O)N[C@H](C(=O)N[C@@H](CCCCN(C)C)C(=O)N[C@@H](CCC(N)=O)C(=O)N[C@H](C(=O)N[C@@H](C)C(=O)N[C@@H](CCCNC(=N)N(C)C)C(=O)N[C@@H](CCCCN)C(=O)N[C@@H](CO)C(=O)O)[C@@H](C)O)[C@@H](C)O` [K4me2–R8me2a], for which, on SPIN1_50–262, the “affinity reduction upon loss of one methyl group” value was ~10 fold. Take “H3_(1–10)K4me3R8me2a peptide (from UniProt P68431 2-11)”: in data set [1], the fold drop of affinity against wild-type SPIN1(50–262) lay within 10 to 40 fold. Usually Kd stands for the equilibrium constant for the complex coming apart. Turning to H3 K4me2–R8me2a peptide, in data set [2], the Kd amounted to 510 nM.

In the case of ART[Lys(Me3)]QTARKS [H3_(1–10)K4me3 peptide], the “reduction of Tm against H3(1–10)K4me3R8me2a” value in data set [3] came out at 4 °C. Also, in data set [4], the Kd was ~147 nM. ART[Lys(Me3)]QTA[Arg(Me2a)]KS (peptide, UniProt P68431 2-11, looked up) [H3_(1–10)K4me3R8me2a peptide]: in data set [3], the “Tm of SPIN1(50–262) with the peptide” value came out at 63.5 °C. In addition, the “fold reduction of binding affinity against wild-type SPIN1(50–262)” value is ~3 fold with SPIN1_(50–262) E142A and ~90 fold in the data set with SPIN1_(50–262) D184A.

Take ART[Lys(Me3)]QTA[Arg(Me2s)]KS [H3_(1–10)K4me3R8me2s peptide]: in data set [3], the “reduction of Tm against H3(1–10)K4me3R8me2a” value was determined as 2 °C. With ART[Lys(Me3)]QTA[Arg(Me)]KS [H3_(1–10)K4me3R8me1 peptide], in data set [4], the Kd is ~139 nM. Same read-out and setting: the value for RRKKKCVRYIQG [TCF4_(458–469) peptide] was 3900 nM.
